Entries after “also recorded” stand apart in the source; their conditions may differ. Where two headings read alike, the source gives them in different places.
Legend:
[1] = In solution state by SEC MALLS; assay type: physicochemical; conditions: Superdex 200, 20 mM citrate, 0.1M NaCl
Procedure: The aim of this experiment was to determine the in solution state of DAT0115, DAT0117 and DAT0120 by SEC MALLS. Samples were purified and dialysed into appropriate buffer (PBS) and filtered after dialysis, concentration was determined and adjusted to 1 mg/ml. BSA and HSA were purchased from Sigma and used without further purification. Shimadzu LC-20AD Prominence HPLC system with an autosampler (SIL-20A) and SPD-20A Prominence UV/Vis detector was connected to Wyatt Mini Dawn Treos (MALLS, multi-angle laser light scattering detector) and Wyatt Optilab rEX DRI (differential refractive index) detector. The detectors were connected in the following order—LS—UV—RI. Both RI and LS instruments operated at a wavelength of 488 nm. […] The traces are then analysed using ASTRA software, and the signals are normalised aligned and corrected for band broadening following manufacturer's instructions. […] The dilution that takes place on the column is about 10 fold, so the concentration at which in-solution state is determined is 100 ug/ml, or about 8 uM dAb. […] 16, 1093-1099 (1948)]: The calculations were performed automatically by ASTRA software, resulting in a plot with molar mass determined for eath of the slices [Astra manual]. […]

[2] = set-up: species or system cynomolgus monkey (Macaca fascicularis); conditions: cynomolgus monkey, in vivo, 0.1 mg/kg
Procedure: Briefly, protein was purified using batch absorption to protein L-agarose affinity resin followed by elution with glycine at pH 2.0 and neutralisation woth Tris PH 8.0. This was followed by ion exchange chromotography on a Resource S column using a 0-1M salt gradient in 20 mM acetate pH5.0. Fractions containing the desired protein were then combined and buffer exchanged into 100 mM NaCl, 20 mM citrate pH6.2. Protein was extensively QCed (including SDS-PAGE, mass spec, activity assay:GLP-1R-BA, pH check, osmolarity check), filter sterilised and endotoxin removed. Protein with confimed low endotoxin (<0.05 EU/mg protein) was then used for the in vivo study. Six female cynomolgus monkeys (Macaca fascicularis; Charles River Laboratories BRF, Houston, Tex., Primate Products, Miami, Fla. and/or Covance Research Products, Inc., Alice, Tex.) were used in this study. The monkeys were approximately 2 to 9 years old (with a body weight range of approximately 2 to 5 kilograms) at initiation of dosing. The monkeys were housed individually in stainless-steel cages in an environmentally controlled room(s) (64 F to 84 F; 30 to 70% relative humidity) with a 12-hour light/dark cycle. The female monkeys were offered approximately 6 biscuits twice daily of Monkey Diet #5038 (PMI Nutrition International, Richmond, Ind.) and a daily allotment of fresh fruit. […] Dose was at 0.1 mg/Kg. On the days of dosing, the first feeding occurred within approximately 1 hour post dose for each monkey (extended up to 2.5 hours post dose if study-related procedures required animals to be out of their local housing for an extended period of time). The second feeding was no sooner then two hours following the first feeding. For the purpose of environmental enrichment, additional fruit, legume and/or vegetable (e.g., grapes, baby carrots, peanuts) was provided to each monkey at or around the time of viability check or as a method of reward after acclimation or study-related procedures. Filtered tap water (supplied by Aqua Pennsylvania, Inc. and periodically analyzed) was available ad libitum. Plasma samples (approx 2 ml) were collected from the femoral vessel at predose (0 hour) and nominally at 5 minutes (iv group only), 0.5, 4, 8, 24, 48, 96, 144, 192, 288, 336, 504 and 672 hours after dosing. (PK samples from one of the animals in the iv dose group were only collected to 24 h so this animal has been excluded from the PK fitting). Analysis of samples was by mass spectrometry, and fitting of the data was using WinNonLin fitting software. PK parameters were as follows for iv administration (n=2): T1/2 67 h, MRT 46 h, Vz 327 ml/Kg and Cl 3.3 ml/hr/Kg; and for sc administration (n=3): T1/2 68 h, MRT 98 h, Vz 306 ml/Kg and Cl 3.1 ml/hr/Kg. Bioavailability was calculated as 99%.

For “Exendin 4 (G4S linker)3 DOM7h-14 dAb fusion [DAT0115]”, the “in-solution state (self association)” value ([1]; pH6.2) was “eluted in a single peak; also recorded: significantly less (and possibly no) self association”, the “Mw determined across the peak (SEC MALLS)” value ([1]; pH6.2, 0.5 ml/min, expected monomer 16.9 kDa) was 17.4 kDa and the Bioavailability [2] was 99%. The Cl ([2]; iv) was 3.3 mL/h/kg, the MRT ([2]; iv) was 46 h and the T1/2 ([2]; iv) was 67 h. The Vz ([2]; iv) was 0.327 L/kg, the Cl ([2]; sc) was 3.1 mL/h/kg and the MRT ([2]; sc) was 98 h. The T1/2 ([2]; sc) was 68 h and the Vz ([2]; sc) was 0.306 L/kg.
